# From the supplement of paper PMC7877785
# ± gives the uncertainty stated by the source.
# Assay: self-splicing fitness, log relative to wild type (ln ratio); higher = more splicing; Tetrahymena group I intron in knt gene, E. coli kanamycin selection, DiMSum; sequences stand for … in CUCUCU…GGAGGGAAAAGUUAUCAGGCAUGCACCUGGUAGCUAGUCUUUAAACCAAUAGAUUGCAUCGGUUUAAAAGGCAAGACCGUCAAAUUGCGGGAAAGGGGUCAACAGCCGUUCAGUACCAAGUCUCAGGGGAAACUUUGAGAUGGCCUUGCAAAGGGUAUGGUAAUAAGCUGACGGACAUGGUCCUAACCACGCAGCCAAGUCCUAAGUCAACAGAUCUUCUGUUGAUAUGGAUGCAGUUCACAGACUAAAUGUCGGUCGGGGAAGAUGUAUUCUUCUCAUAAGAUAUAGUCGGACCUCUCCUUAAUGGGAGCUAGCGGAUGAAGUGAUGCAACACUGGAGCCGCUGGGAACUAAUUUGUAUGCGAAAGUAUAUUGAUUAGUUUUGGAGUACUCGUGGUCG
# Method in brief: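 Fitness was computed with DiMSum as the error-weighted combination of replicate fold changes, kanamycin versus none, each normalised to wild type. The library randomised all eight intron nucleotides of the P1ex region, with the intron placed in the knt kanamycin-resistance gene on pET-22b(+) in E. coli BL21(DE3). Six replicate transformations were grown overnight at 37°C or 30°C on LB agar with or without 25 μg/mL kanamycin, plus 100 μg/mL carbenicillin, 50 μM IPTG and 0.2% rhamnose. Pooled colonies were amplicon-sequenced on an Illumina HiSeq 2500.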
Sequence,self-splicing fitness (ln) (30 °C),self-splicing fitness (ln) (37 °C)
UCCGAGCAAUAUUACGUUGG,-3.33 ± 0.21,-1.78 ± 0.24
UCCUAGCAAUAUUACGAAUG,,-2.76 ± 0.44
UCCUAGCAAUAUUACGAGAG,-3.57 ± 0.17,-2.51 ± 0.2
UCCUAGCAAUAUUACGAGUU,-3.71 ± 0.3,-1.24 ± 0.18
UCCUAGCAAUAUUACGCAAC,-2.76 ± 0.21,-3.38 ± 0.42
UCCUAGCAAUAUUACGCAAU,-2.64 ± 0.21,-2.05 ± 0.25
UCCUAGCAAUAUUACGCCAC,-1.72 ± 0.28,-1.15 ± 0.27
UCCUAGCAAUAUUACGCCUA,-2.01 ± 0.41,
UCCUAGCAAUAUUACGCGGA,-3.3 ± 0.26,-2.51 ± 0.25
UCCUAGCAAUAUUACGCGUU,-2.01 ± 0.095,-0.94 ± 0.1
UCCUAGCAAUAUUACGCUAC,-2.35 ± 0.15,-0.883 ± 0.3
UCCUAGCAAUAUUACGCUCA,,-2.48 ± 0.42
UCCUAGCAAUAUUACGCUUC,-3.48 ± 0.18,-3.1 ± 0.23
UCCUAGCAAUAUUACGGAGC,-3.26 ± 0.29,-1.98 ± 0.18
UCCUAGCAAUAUUACGGCGC,-2.21 ± 0.24,-1.69 ± 0.23
UCCUAGCAAUAUUACGGGAU,-4.1 ± 0.22,-2.18 ± 0.17
UCCUAGCAAUAUUACGUAAA,-1.84 ± 0.19,0.0696 ± 0.22
UCCUAGCAAUAUUACGUAAG,-3.31 ± 0.24,-2.4 ± 0.23
UCCUAGCAAUAUUACGUACC,-2.36 ± 0.47,
UCCUAGCAAUAUUACGUCUU,-4.03 ± 0.23,-2.05 ± 0.14
UCCUAGCAAUAUUACGUGAC,-3.85 ± 0.2,-3.03 ± 0.21
UCCUAGCAAUAUUACGUUAC,-3.48 ± 0.25,-2.09 ± 0.25
UCCUAGCAAUAUUACGUUUC,-2.36 ± 0.4,-3.04 ± 0.43
UCGAAGCAAUAUUACGACAG,-3.08 ± 0.23,-1.87 ± 0.31
UCGAAGCAAUAUUACGACCA,-1.16 ± 0.15,-1.09 ± 0.18

Sequence,self-splicing fitness (ln) (30 °C),self-splicing fitness (ln) (37 °C)
UCGAAGCAAUAUUACGAGGG,-2.48 ± 0.15,-1.62 ± 0.2
UCGAAGCAAUAUUACGAGGU,-3.45 ± 0.4,-2.03 ± 0.29
UCGAAGCAAUAUUACGAGUU,-3.31 ± 0.15,-2.04 ± 0.21
UCGAAGCAAUAUUACGCAUU,-1.97 ± 0.19,-2.46 ± 0.26
UCGAAGCAAUAUUACGCGAC,-3.47 ± 0.25,-2.2 ± 0.26
UCGAAGCAAUAUUACGCGCU,-2.18 ± 0.2,-0.209 ± 0.24
UCGAAGCAAUAUUACGCGGA,-3.61 ± 0.39,-1.35 ± 0.17
UCGAAGCAAUAUUACGCUAU,-3.24 ± 0.19,-3.36 ± 0.42
UCGAAGCAAUAUUACGCUGA,-3.44 ± 0.33,-2.31 ± 0.29
UCGAAGCAAUAUUACGGAAC,-3.33 ± 0.38,-0.421 ± 0.39
UCGAAGCAAUAUUACGGAGU,-3.99 ± 0.28,-1.03 ± 0.15
UCGAAGCAAUAUUACGGCGC,-3.11 ± 0.34,-2.04 ± 0.32
UCGAAGCAAUAUUACGGGUC,-4.14 ± 0.33,-2.54 ± 0.44
UCGAAGCAAUAUUACGGUAA,-2.11 ± 0.16,-0.334 ± 0.13
UCGAAGCAAUAUUACGGUCC,-4.15 ± 0.42,-1.95 ± 0.31
UCGAAGCAAUAUUACGUAGU,-2.53 ± 0.11,-0.666 ± 0.11
UCGAAGCAAUAUUACGUCCG,-0.163 ± 0.1,-0.412 ± 0.12
UCGAAGCAAUAUUACGUCGC,-1.76 ± 0.14,-1.86 ± 0.19
UCGAAGCAAUAUUACGUUCC,-2.35 ± 0.33,-0.433 ± 0.41
UCGAAGCAAUAUUACGUUGC,-3.36 ± 0.26,
UCGCAGCAAUAUUACGAAGG,-1.85 ± 0.096,-0.846 ± 0.12
UCGCAGCAAUAUUACGAAUC,-4.04 ± 0.2,-2.61 ± 0.2
UCGCAGCAAUAUUACGACAG,-2.6 ± 0.25,-0.246 ± 0.35
UCGCAGCAAUAUUACGCAGC,,-2.1 ± 0.45
UCGCAGCAAUAUUACGCAGG,-3.59 ± 0.2,-2.2 ± 0.19

Sequence,self-splicing fitness (ln) (30 °C),self-splicing fitness (ln) (37 °C)
UCGCAGCAAUAUUACGCAUU,-2.57 ± 0.18,-2.43 ± 0.21
UCGCAGCAAUAUUACGCCAA,-1.37 ± 0.16,-1.23 ± 0.22
UCGCAGCAAUAUUACGGCUC,-3.21 ± 0.17,-2.96 ± 0.35
UCGCAGCAAUAUUACGGGAG,-3.59 ± 0.24,-3.15 ± 0.23
UCGCAGCAAUAUUACGGGGU,-3.73 ± 0.17,-2.72 ± 0.18
UCGCAGCAAUAUUACGGUAG,-2.49 ± 0.086,-0.887 ± 0.086
UCGCAGCAAUAUUACGGUAU,-3.36 ± 0.17,-1.78 ± 0.21
UCGCAGCAAUAUUACGUAGG,-0.74 ± 0.068,-0.377 ± 0.086
UCGCAGCAAUAUUACGUAGU,-2.58 ± 0.13,-2.85 ± 0.26
UCGCAGCAAUAUUACGUAUU,-3.64 ± 0.15,-1.85 ± 0.12
UCGCAGCAAUAUUACGUCAG,-1.59 ± 0.12,0.604 ± 0.15
UCGCAGCAAUAUUACGUGCU,-3.64 ± 0.16,-2.15 ± 0.17
UCGCAGCAAUAUUACGUUAC,-3.36 ± 0.36,-2.95 ± 0.25
UCGCAGCAAUAUUACGUUCC,-2.7 ± 0.23,
UCGCAGCAAUAUUACGUUUC,-3.87 ± 0.2,-1.66 ± 0.12
UCGGAGCAAUAUUACGAACG,,-1.54 ± 0.35
UCGGAGCAAUAUUACGAAUA,-2.32 ± 0.32,-1.27 ± 0.32
UCGGAGCAAUAUUACGACGC,-1.25 ± 0.25,-0.73 ± 0.22
UCGGAGCAAUAUUACGAUGU,-2.81 ± 0.17,-1.2 ± 0.13
UCGGAGCAAUAUUACGCAUU,,-2.14 ± 0.27
UCGGAGCAAUAUUACGCCUU,-2.96 ± 0.29,-2.92 ± 0.43
UCGGAGCAAUAUUACGGACG,-1.65 ± 0.21,0.113 ± 0.17
UCGGAGCAAUAUUACGGAUU,-2.73 ± 0.27,-2.85 ± 0.38
UCGGAGCAAUAUUACGGCCG,-1.49 ± 0.31,
UCGGAGCAAUAUUACGGCGG,-1.42 ± 0.11,-0.955 ± 0.17

Sequence,self-splicing fitness (ln) (30 °C),self-splicing fitness (ln) (37 °C)
UCGGAGCAAUAUUACGGGAU,-3.48 ± 0.25,-2.81 ± 0.38
UCGGAGCAAUAUUACGGUUC,,-2.89 ± 0.43
UCGGAGCAAUAUUACGUCGA,-0.356 ± 0.42,-0.949 ± 0.3
UCGGAGCAAUAUUACGUGUU,-3.26 ± 0.24,-2.25 ± 0.26
UCGGAGCAAUAUUACGUUCG,-1.19 ± 0.17,-1.27 ± 0.27
UCGUAGCAAUAUUACGAAGC,,-1.29 ± 0.35
UCGUAGCAAUAUUACGACGG,-2.04 ± 0.2,-0.573 ± 0.19
UCGUAGCAAUAUUACGAGGA,-3.72 ± 0.39,-2.58 ± 0.29
UCGUAGCAAUAUUACGAUAA,-3.65 ± 0.26,-1.72 ± 0.2
UCGUAGCAAUAUUACGAUAG,,-3.12 ± 0.38
UCGUAGCAAUAUUACGAUCG,-2.77 ± 0.23,-0.597 ± 0.18
UCGUAGCAAUAUUACGAUUA,-2 ± 0.3,-0.78 ± 0.17
UCGUAGCAAUAUUACGCCCA,-0.576 ± 0.14,0.129 ± 0.19
UCGUAGCAAUAUUACGCGCG,-1.62 ± 0.12,-1.34 ± 0.15
UCGUAGCAAUAUUACGCGUU,-2.91 ± 0.26,-2.18 ± 0.26
UCGUAGCAAUAUUACGCUGC,,-2.48 ± 0.36
UCGUAGCAAUAUUACGGAUU,-2.08 ± 0.14,-2.85 ± 0.23
UCGUAGCAAUAUUACGGCAU,-3.93 ± 0.27,-2.53 ± 0.28
UCGUAGCAAUAUUACGGGUA,-1.57 ± 0.17,-0.425 ± 0.16
UCGUAGCAAUAUUACGGUCA,-0.782 ± 0.16,-0.0592 ± 0.13
UCGUAGCAAUAUUACGGUUG,-2.14 ± 0.12,-1.05 ± 0.15
UCGUAGCAAUAUUACGGUUU,-3.44 ± 0.14,-1.37 ± 0.11
UCGUAGCAAUAUUACGUAGG,-2.71 ± 0.17,-0.631 ± 0.15
UCGUAGCAAUAUUACGUGGC,-4.04 ± 0.16,-2.22 ± 0.12
